Reference: a protein production outcome set (Wang et al. 2014)

Test: label from the status in PepcDB records

Row | Sequence | protein production
1 | MTAYDLKLKCVCDYIQQHLDETLSLQQLSEVAGLSRFHFHRIFYAHLGMNIMKYTQMLRLKRASFQLVFKPEVKVIEIALDAGFDSPEAFARAFKRSFDQTPSAFRVEPNWQNWHRKFVYFTPESELKMNVTIIERPVEKIAYISHQGSPEKVFETAAKFIEWRKRTGLSPVKTSATYGIPFSDPEQTPEKEFRFDIAGSITKSIDQNNEGIEMSEIPAGRYAMVRHWGSHDYIRDSVYFLFRNWLPAQQEEAGDYPVFFHYHNFVHEVKEADLVTDIYLLLK | failed
2 | MTCAYRREIHHAHVAIRDWLAGDSRADALDALMARFAEDFSMVTPHGVVLDKTALGELFRSKGGTRPGLRIEIDGESLLASGVDGATLAYREIQSDAAGRSERLSTVVLHRDDEGRLYWRHLQETFCG | not failed
3 | MTCDQIPGRMRVKAERTPFRCPTPVKRKKAMSSAMPQPETTPILACTVSRDVQNFDLLIEDMEAAMGESWGDLGFAEALAFFGQPESESLEFIALAIDTEDEDNLVLMGEIITQAKSRGIKVILIAEDVTPASLHQLLRKGADEFVPYPLPERELQSAIDRMSKPEPEQAQTHHNTAHLNKGAAREGALIVVHGLAGGTGSTTMAVNLAWELANIGGEDAPSVCLMDLDLQHGSVSTYLDLPRREAVFEMLSETQSMDEEVFGQALLSFEDKLQVLTAPSDMVPLDILSPEDIQRVIEMARAHFDYVIVDMPKTLVQWSETILQAAHVYFAMIELDMRSAQNALRMKRALQSEDLPFNKLRFALNKAPKFTDLSGKSRVKRMGESLGISIDLQLPDGGKQVTQGADHGLPLATSAPKNPLRREIAKLAQSLHELGRSDAKAA | failed
4 | MTCEGRRTMTQPISLGHRMSLIDLYDLRMPQRTGTYVLHEENLAIIETGPSPSVPHLLAGLKALHIDPADIRYIIVTHIHLDHAGGVGVLLEHCPNATVIVHPKGKRHLADPSRLIAGAKAVYGEQFDALFDPIVPVPEERLLVKEDGETLVLSAERTLTFYDTPGHANHHFSIYDSYSGGVFTGDTIGVFYPQLQEAGLAFCLPSTSPNQFNPEAMKQSAERLEKLNPTRIYFGHFGALDQPEEAFRQLRFWLPKFVAAGKEVIARHPEAPAAEQAKAVTKLLHNDITAFLNECSIPASSPVYKVIELDLQVCAMGIIDYWRKQRLEHHHHHH | not failed
5 | MTDAPLGRSAVYTILTTGYVGSTGPGVAATVSYVADGGRHVVFDPGMVASRDHILGPLAELGLGPDDITDVVLSHHHPDNTMNVGLFGRATVHDHKVEYLGDQWRNRDAEGYELTPSLRLIRTPGHSLEDITLLAGTDTGVVAFAGDLWWHSDGPADDPVAPDREVLRASRLRVLAAADLIVPGHGSPFKADITAPRLEHHHHHH | not failed
6 | MTDATAEQSVTADADDKPEPYNGLPGAFPYAFRATDSLLFKAYVPVALLLSVAITLVFSFGLITQLAETGSVRGGTFTFSRSFFLFVGLLLVAPLLAPVLSVARRHRRTASSVAYDRALALSAFLFIGSIYLALLTSAPAELREPTQSAVVGFFYSLPPIAGVVPPMLATLGIYLTHRLLK | failed
7 | MTDDLLKPNRPHPLFKLATELGPLLVFFIVNAKFHLFAATGAFMVAVVAAVIASYVVTRHVPVMALVTAVVVLVFGTLTLVLHDETFIKMKPTIVYSLFGAVLAGGLLFGRSFIAIMFDQVFNLTAAGWRKLTLRWALFFFAMALLNEAVWRTQSTDFWVNFKVFGVVPLTMLFALLQMPLTKRYAAEPATLEQSAADEGDVSGR | not failed
8 | MTDESDALCATEKEIMHATHRALVNSGYAELSISRISDELDKAKSTIYHYYDSKDALLLRFLRFTVDRFEATINTSIGDNPKEDLNHIISTLLPCQLPEEKRQLHSVLVTLSPQALERAVFREQFTEIDTRLATIIEKTVRRGVDADVFRDVDPTHAAEHILATIKGTMYSRLTTNREAATAAAKASLFSYIDSHLIS | failed
9 | MTDEVSVLFVDFLLEWLEMMRTRVRETTYASYNSGIRQSIIPYFMDKKLTLTDIEENPKYLQDFYQHELSKGLSPNSVLRRHANIRKALQHAFHLGLIKSNPADRIERPKKQDYTALEHHHHHH | not failed
10 | MTDGEAVSAAAGPGAEGPPGPVGHWAPGSHILWRYRENGGPHVHIARPVTVVRDDADLLAVWLAPGTECVKPVLADGTPVHLEPLATRYTKPRTVQRDQWFGTGVLKLARPGEAWSVWLFWDPGWRFKNWYVNLERPLTRWEGGVDSEDHFLDISVHPDRTWHWRDEDEFAQALRDGLMDPASAGRVRRAGRSAVAEIRAWGSPFADGWEHWRPDPAWPVPSLPGDWDRTPAHVSS | not failed
11 | MTDNPFATPTAPVQPPAREVPATTQPYAFIAVLALVTCLSFAVSLGIQWYNDIGEIRQRFSEHLQLMAPHWFTGLVFYAAANLLVLHAYREKRQLVEFRPLALLLIGYGLLNLVCGMLAGIGLAPLTLPFYQWVTAQSSYGVWLMAFNEAMSWVYLLLGSLLPLGLVLLGSRVNSPRLAEGEEARVAAWQVALGAALCFATLCFKLMQFLPYALLRYDEPWLYGLYLSGVALPAALLFGAVCTRLPARLQRFAAGRALLLAVVAMLLWSVALLAVGGGLALLMILGLAPAGIGYTLLVALLGVGLLALLWPIGRLATRWCYADQLAA | failed
12 | MTDREWPEYPNQSGGETVTGPESAQEEAASERGWEADPPSPASEECQSEEGSNWERTAQEAEEEVPGGQRGEDLGTLGQAQELQEAAPFFQEEGSEPSQTTETSGWKPGMESSEDSREEPDLPAESPESSGQELQEAAALSPEETQVPFQTENAWEPGAERPENPDGGESQEPVAERPSAQPYDQSPAFSRPAPQAPPPVWNPGWQASYRQAPQNYPYGQGQYQGGWHPQQRQVPPPYYGGTPYQAPNPYQNQAPYGYPGQAARNQGQPGYQESRWYPQQPAQPARTGSVPPPSQPPQKEAGELPDAKPPEKKRMNKKTKAFLWVIGAVLVLLGAAMVLYSVGLTSGWFGGETAEPPQASSSTPAPEDDQKLLEIEEIPQDGMMTPNQVYEKVKHSVVAVVTYGQGSDLTDSPISSGSGIVFSEDGYIVTNSHVIGDSNQYPVKMVFTGQDENEEDQEYPAQIVGYDKRTDIAVLKIDAAGLTPAEFADSDQLKVGDTVLSLGNPGVAGENFTNTLTKGMVSAVNRTVTMSSINMQYIQTDAAINPGSSGGALLNLYGQVVGINAAKITTTEIEGICFAIPTNIAKDVINDIVKNGYVSDRVRLGVTIRGLSSYEAEMYNVPQGLVIVGFSSDSEIPSKGAEIGDIITAINGVNTTSSNTLYNELEKFKAGEKVKLTIYRQASGSQRARTFEIEVTLLEARGETQSAVTPTPEAP | failed
13 | MTDTNVLANSATDNQETTHFGFETVRKDEKVHKVAQVFHSVAAKYDIMNDLMSGGIHRLWKRFTIDCSGARPGQRILDLGGGTGDLTAKFSRIVGEKGHVILADINNSMLNVGRDKLRDSGVVGNVHYVQANAEELPFPDNYFDCITISFCLRNVTDKDKALRSMFRVLKPGGRLLVLEFSKPILEPLSKLYDTYSFHILPKMGQLIANDADSYRYLAESIRMHPDQETLKGMMEEAGFEQTTYYNLTGGIVALHRGYKFLEHHHHHH | not failed
14 | MTDTQNRVAMGYIKGVFGIKGWLKIAANTEYSDSLLDYPEWHLVKDGKTISVTLEAGKVVNGELQVKFEGINDRDLAFSLRGYTIEIPREAFAPTEEDEYYWTDLVGMTVVNKDHTVLGKVSNLMETGANDVLMIDGEHGQILIPFVSQYIETVDTGSKTITADWGLDYLEHHHHHH | not failed
15 | MTEAGASIVVTVKNEGKNLRELLESIEKNDFTNFETVVVDDLSTDDTEDIVKSYRFTVYKRIACSRGEGRNIGVDLSRYGYILFTDGDAKVSEHWISGMVSALAAGNDAVIGNTLYTGKRRYMQERVKIFLEGIEVTAPSVNLAYRKDRFRQLGGFDPKFVTAEDIDLNIRAVKAGFRFATCDSCVVYAKVRENLASFLRQAYWNGYGRYQLEMKHPGITRNTRVRLGHNFFDFLHMVSGAAGYLSARISEGKQGRLEHHHHHH | not failed
16 | MTEDQAFWNAFAPDYAAAEQASRLPIAHDVIAWLRSTQLLPAHSAVDLAAGTGRYAVQMMPWVQELTLIDWSSAMLAFAKERMHQQADTKAQFIVADWRKLHKPLNADMLFVSQLPTLKPQDLKMLMNWASQTVVLNFQTAQSDALLEQAASLLGLQLPPVYQADPARMISFKVWLTAQRIPFQSHSLTYEIEEQTTLSDLLPDLATPIGLKTAASLAKAITGHENTHVQVTDRLTYTYTQLVWHVLEHHHHHH | failed
17 | MTEEAAAQQTPVPGMTGPRRAAVGFIFITIALDMLSLGMILPILPKLIESFSDDNTANAARIYGLFGTAWALMQLFASPILGGLSDRFGRRPVILLSNLGLGLDYVLMALAPSLWWLFVGRVISGITSASISTSFAYIADVTPAEKRAAVFGMVGAAFGLGFTFGPAIGGLLGGVDPRLPFWVAAALSLANTLYGLFVLPESLPRDRRSPFRWKSANPIGAVRLLSSNARLAALAVVEFCAEVAHVALPATFVLYTGYRYAWDQTTIGLALAFVGVCTTIVQGGLVGPAVKLLGERNAQIIGYGGGALGFLIYALAPSGTLFWIGIPVMTLWGIAGPATSGMMTRLVSPSQQGQLQGATTSVKSVAELIGPFLFTMIFAYFIDAGAPLQLPGAPFLLAGALLVVSVVIVAFASPAADSKQAPQAAPES | failed
18 | MTEFALDTSTGITIIVLFGVFWVAFGYWLGRKNRSHEDFALAGRNVGFAFAAATAMATWVTSNTTLVAPQLTYQFGIWGMVGYSFAALGLVLFAPMAKRIKELLPNGYTSGDFVRLRYGNLAWLVFIIISVVYAFGWLISLGMAGGILLESLSGLDYHIGMTTILVICVGYTLFGGMRAVIATDFIQALIIIVGVSFIAYWIIDNVGLESIHSNLTSEHPQLLDMLFPAAVMFLFNNIFFGLGEIFHSNVWWSRALSFKKNVAYKAYLTGGLLWLPIPIVTGFIALAAPQLGIFPPSPDMIGPTVAAAVLGKAGAIIVFIVIFSALASSLDSLLAATSDLVTQDIFHKKLKPKASDKTLMRFNRSCILGLGVVTWLLCLPRVATLGALLNFAGAFVASTIWPIVLGLYHRRLTGTYAACAMGFGTAFGMLSYFVVGFYVAALVSCAVSGLICLVGIFRSSDKFDWDTLNEKEQSNANQ | failed
19 | MTEILPHVNDEVLPAEYELNQPEPEHCPGPESDMAGKSDACGGCANKEICESLPKGPDPDIPLITDNLSGIEHKILVLSGKGGVGKSTFAAMLSWALSADEDLQVGAMDLDICGPSLPHMLGCIKETVHESNSGWTPVYVTDNLATMSIQYMLPEDDSAIIWRGSKKNLLIKKFLKDVDWDKLDYLVIDTPPGTSDEHISINKYMRESGIDGALVVTTPQEVALLDVRKEIDFCKKAGINILGLVENMSGFVCPNCKGESQIFKATTGGGEALCKELGIKFLGSVPLDPRIGKSCDMGESFLDNYPDSPASSAVLNVVEALRDAVGDV | failed
20 | MTEIQRLLSETIDDLNIREKRDNRPRFSISFIRKHPGLFIAMYAAWFATLAVMLQSETLVGSVWLLVVLFIAFNGFFFFDIAPRYHYNDIDVLDLRVCYNGEWYNTRFVPPTLIETILQSPQVDNEHKVQLQKMVARKGELSFYDIFTLARAEASR | failed
21 | MTEISYEAIAFEQSGPITRITLNRPDAANGMNDTMTRELADAARRADTSGAKVVVLTGSGRFFSAGGDLKAFSTAPSRGAFIKGVADDLHRAISSFARMDAVLITAVNGTAAGAGFSIAVTGDLVLAAESASFTMAYTKVGLSPDGSASYYLPRLVGMRRAQELMLTNRTLSATEAYEWGLVTEVVPDADLADRATKLAEQVAAGSAGSNGAVKSLLLSSLKNSLEEQMEAEGRFIAARADSADGREGVDAFLGKRRPEFA | failed
22 | MTEKKIDFKKEEKKFYAPKRKPERIFVPEMNFLMVDGKGDPDGEEYQKAVQSLYAIAYTIKMSKMGETRLDGYSDFVVPPLEGFWWSEGKFDLKDRDAWLWTSILRQPDFVTEEVLEWAKEVARKKKPDVDTSRVKLVRFEEGECVQMMHVGPFSEEVHTVAEMHQFMETEGLRNDTGAIRKHHEIYLSDPRKANPEKMKTILRLPVS | not failed
23 | MTEKLIEQLEARINDLECQVAFQEQTIEDLNSALSQQQLQITKMQDQMKYVVGKVKNMDSSNMEDPANEPPPPHY | failed
